Laboratory results taken from the DeepSol protein solubility set.

Assay: soluble on expression in E. coli; label from the status in PepcDB or PDB records

Soluble on expression in E. coli, not soluble:
GPGSMIAILFGFTLGTAVGACNRAHYSSYGSSVYIAPLPSNSHNSLAFMDIARYRAGLFTTHQSVCGRVVIELFDSISPVSTTNFRGLCQGKHGTSGTGHKLCYSGTRLLPNECFIRGGDVTFGSAAGGWSIYGRSFREMAKGSSSSSRSSDVKGKGLVYAVGANAQWGSEFLITVDGFTPGEDHILLGQVVEGYDVLQRLQQQSLLPHAKRFIHYRILKAGVLKEAETPNYGKGSAFLRF, MAASKKAVLGPLVGAVDQGTSSTRFLVFNSKTAELLSHHQVEIKQEFPREGWVEQDPKEILHSVYECIEKTCEKLGQLKIDISNIKAIGVSNQRETTVVWDKITGEPLYNAVVWLDLRTQSTVESLSKRITGNNNFVKSKTGLPLSTYFSAVKLRWLLDNVRKVQKAVEEKRALFGTIDSWLIWSLTGGVNGGVHCTDVTNASRTMLFNIHSLEWDKQLCEFFGIPMEILPNVRSSSEIYGLMKISHSVKAGALEGVPISGCLGDQSAALVGQMCFQIGQAKNTYGTGCFLLCNTGHKCVFSDHGLLTTVAYKLGRDKPVYYALEGSVAIAGAVIRWLRDNLGIIKTSEEIEKLAKEVGTSYGCYFVPAFSGLYAPYWEPSARGIICGLTQFTNKCHIAFAALEAVCFQTREILDAMNRDCGIPLSHLQVDGGMTSNKILMQLQADILYIPVVKPSMPETTALGAAMAAGAAEGVGVWSLEPEDLSAVTMERFEPQINAEESEIRYSTWKKAVMKSMGWVTTQSPESGIP, MDLPVMPPVKPMLAKSVAKIPPGMHYEAKWDGFRAIVYRDGDEVELGSRTGKPLTRYFPELVVAVRERLPERCVVDGEIVIARDGHLDFDALTERIHPADSRVRTLAERTPASLVAFDLLALDDASLLDVGLADRRALLVRALSGVTPPVHVAPATDDIEVARRWFEQYEGAGLDGVVAKPLDLRYRQDERAMYKIKHERTADVVVAGYRFHKSGPVVGSLLLGLYDDRGLLQHVGVSAAFTMKRRAELVAELEPLRMDDARGHPWAAWAEEAAHESARLPGAPSRWSGKKDLSWVPLRPERVVEVAYDHMENGARFRHTARFRRWRPDRTPESCTYAQLEEPVRYDLAEILGGPLEHHHHHH, MGSDKIHHHHHHMQPRLVIAGTHSGVGKTTVTLGLMAAFVEKGNIVQGFKCGPDYIDPSYHRAVTKRASRNLDSWMVSEDVVNDIFIEGCNGADLSIIEGVMGFYDGKASTSDKGSTADISLLLQAPVLLVVDISGMARSAAAVVKGFQQLNEKVKIAGVILNGAGSERHAEMCSEAIKEACGIPALGYLKKGDVPSIPERHLGLVPALERGEHDSLFSQLAAVVSRQFDLERIERLALEASALSRRTNLFQQTKRPSVVKIAVAYDAAFHFYYEENFTLLRQAGAELVYFSPLRGEDLPSHCDGLYLGGGFPEEFADELSQWIKDHPQLKKRVQSGLPTLAECGGYMFLGEQLTTTKGKTVEMAGVIPMVVQMENKLVSLGYRDVTPLDDSFLLSKGQQIRGHEFHYSKAVYTETERPAYFVKGLFGEGKEGYMSDHLLAGYTHLHFASEPAVATQWVKACEVYKNRRLHRGQVSQ, EEAKEGVPKVAYISLSPPFVGNYALDGSPRLRVYKADVALRVTGDEAAKTVKHHEPLIRNQLVALFTQQTVDSMSNVEAKEHLRQEALKQVQQVLEAEEGKPIVEDLLFNNLIVQ, MQRNSENSKNGRRVSSSSYMSAAAAAGAAAALRLSVDARAGKEYTTQTHQRDKT, MSLEAAPAGSGPLRRTFLVPEIKSLDQYDFSRAKAAASLAWVLRAAFGGAEHVPPELWEPFYTDQYAQEHVKPPVTRLLLSAELYCRAWRQALPQLEPSPSPSALLALLARRGTVPSLPEHPVREADLKHQPILMGAHLAVIDALMVAFSFEWTKTLPGPLALSSLEHKLLFWVDTTVRRLQEKTEQEAAQRASPAAPLDGASEGHHHHHH, MIYPYNSTISLGTVSLNVTDLAKMTTFYTSIIGLQVLSQDTTSRQLTTDGKTVILELRQTPLPGDKAYGLYHTAFLVPDRHSLGLVLNHFLTRSISLEGAADHGHSEAIYLSDPEGNGIEIYHDKAVEHWDIRDNGQIIGVTEPTDTKSILEQLTDIPKHFLLAQDTRIRHVHLSVKNALASSLLYQKVFDLGDKMTIPSASWIASGNYYHHLAFNHWSAPYLKKHQEGAPGLAFLTIHIETPLLFSATLKKARLHGLAILQEDSSSFTTEDEEGIRVNVILGQD, TNTEEFCSGCHAPIVKEIQETIHYSNRSGVRAICSDCHVPHNWTDKIVRKVQASKELFAHYVTKTIDTEEKFKERRAHLAEREWHRMKENNSQECRNCHEFDYMDFSEQGPRSAKQHSTALASGEKTCVDCHKGIAHKL, MSLNLSRIGLDLAKQVFQVHGVDRHEHVVCRRQLKRAQVRDFFRQLPPCLVAMEACGSAHYWARELRELGHTVRLIAPQFVKPYVKGDKHDAHDAEAICEAASRPSMRYVPVKSAEQQAVQSMHRVRSRLVRARTALCNEVRGLLGEFGLIATRRGRAATMALLETVMATEPAPLPAPMGELLRELKDELQTLEARIARLERQIQAHVRGDARIQRLLAVEGIGPISASAVAASAGDARQFRTGRQFAAWLGLVPRQHSTGGQQRLGNISKRGDTYLRTLLIHGARAVVRCCANKTDARSRWLQGLLQRRPANVVAVALANKNARILWALLSRETCYRPGEGHHHHHH, MGSDKIHHHHHHMETPRREAFRYHEVEQHVLRLIDSKQYPPGSRLPSLRAVARTLSASLATVCHAYEELERRGVVESRPRSGYYVRTLPSPLPVPHSAPAEEEEPREANRSRLIATVLEAVGNPQMAPFGVVSPDPSLLPGKKLGQILAELSRRNAEQCVAYETIAGNAEYRRQIAKRACEDGMPTRASEVVATTGAMEALYIALRVLTRPGDNVLIQSPTYYCFLQLLETLGLRAVEIPSDPKHGINPADLTKALSTFEVAACILSGNFNNPDGALTPDAAKREIVDILAARGIPLVDDDVSADLHFDAQRPASFKQYDKKGLVVFCSSFSKTIAPGYRAGWMLPGRFMEKALEVKATTNVCCATPTQAAVGEFMRLGLYDRQLKKLRSAFQTQICAMHECIGSAFPDGTRVTSPRGGGVLWVELPAAVNGVELFFKARARRVGIAPGSIFSTRDRFSNYIRLSCCGIWNPRMEEALRDLGRLARELT, MSLGIRIGDGCIFRDPLTTRIDVSRPALVSIGSNVDMNTYFQILTHDWASFVFRNKYHDFVNSSGRVEIGSNIYIGTNVIVLRGVTIGDNCVIGAGSVVTHDIPANSVAVGAPCRVVCSLDEYYQKRKVKGLQEAVEHVKAFQKNFGRDPLPHELYEEFIYFVDASNVEEYERQGVPVRSQLSIAYGDWLSTHKAKFSSYDDFIQYVNQKMNETLEHHHHHH, GTERPYGQREVDHYAEKQAIAERAAQEVREGQVVCFDAGSTTMEVARAIPDTDYVAATNMPDLATELAEGDVDTKLTGGSLRPRTRALVGPTAERAVERMNFDLLFLGTNALDSAAGLSTPNEDEAAIKELMVERARRVVLVADASKFGDR, SLPGKLALKLDPTILKHLAKNYDVIVITGTNGKTLTTALTVKVLREQYPDILTNPSGSNMKQGIVTTFLRAPKAHQKPLAVLEVDEANVIMVTKYITPKAFVFTNIFRDQMDRYGEIYTTYQKILDGVALAPEATIIANGDLPLFNAKQLPNPILYYGFDYQPDHDQQAPANTDGLLCPRCQHILRYHSRTYSNMGKYYCPHCGFERPQLTYKLNALTAMTPTSSDFEINGQAMHLNIGGQYNIYNALAAYAVGRFMDVTPAKIAHALSDNDEQV, MYSFTTERLMIRPLRAEDEVFYCQLYADSKVMENIGKTITKKQARQWFKRALKALSSPKKSVVTLAIVKKSTNNIIGIQALSWQNTTQILKPCSQKLVQAEIGIMLTTKAQGQGFGKEAIKALMAYGFVYHSLDRINAFYAKKNLASERLFNSLH, MTENEDLVAGLLLAAGGGRRLGGRPKALLEHRGRPLVEHVAGVLRAAGSTRVYVVLGAQAAAVRERAVLPGCILVDNPDWELGMGTSLRAGLEAMHGTGVRAALVSLVDQPGIGPAAVARVRAAYTSPSTLASAAYDGVRGHPVLFGAAHWAAVAASATGDRGARAYLKAHESAITLVECGDVAEAYDIDTVADLVHLELEHHHHHH, MAILKAQHLAKSYKKRKVVSDVSLQVESGQIVGLLGPNGAGKTTSFYMIVGLVARDEGTITIDDNDISILPMHSRSRMGIGYLPQEASIFRKLSVEDNIMAVLQTREELTHEERQDKLEDLLEEFHIQHIRKSAGMALSGGERRRVEIARALAANPQFILLDEPFAGVDPISVIDIKKIIEHLRDRGLGVLITDHNVRETLDVCEKAYIVSQGRLIAEGTPQDVLNNEQVKQVYLGEQFRL

Soluble on expression in E. coli, soluble:
MAHCLHPEKFFPVVKSVALPPGSLNGKVALVTGGGTGLGKAIATTFAHLGASVAIAARRLDVLEKTADEIRSSTGGVCEPFQMDVKDPAKVAKAFDAVEKKLGHTPDILINNAAGNFIMATERLSPNAYGTIIDIVLKGTLHVTTELGRRCIQQKRGASVLSITTLYAQSGAPFVVPSAVSKAGVENMTKSLASEWAKHGLRFNAIAPGPIPTEGAFGRLFAGELKDSGDAMKASVPVGRLGHPEEIANLAAFMSSDFMSWMNGAIIDFDGGQQHIHHGSHMGQFLHEWDNEKWEETENLIRGRTGKEKKSKL, MQKVHVQYIDGETDQMLRQDDLDGYTDETIPYSTAEGIKKFEGDGYELFKDNFPAGEKFDNDDTNDQFYTVIFKHHRENVDPNHSSADGTKGTKTLTETVHYKYANGTKAAEDQTAQVTFTRNGVLDDVTGIVAWGKWNEASQSYKALTSPTIAGYAPSEAVVKRSSNSDAEQGPTLTVIYTADA, MTESFADLFEQSLQTLEFRPGSIVRGTVVAIENGMVLVDAGLKSESPIPAEQFKNAQGVLEIAVGDEVDVALDSVEDGFGETQLSREKAKRHEAWIVLEKAYEDAETVIGIINGKVKGGFTVELNGIRAFLPGSLVDVRPVRDTAHLEYKELEFKVIKLDQKRNNVVVSRRAVIESESSAERDALLENLQEGQAVKGIVKNLTDYGAFVDLGGVDGLLHITDMAWKRVKHPSEIVNVGDEINVKVLKYDRERTRVSLGLKQLGEDPWLEISKRYPENTKLTGRVTNLTDYGCFVEIEEGVEGLVHVSEMDWTNKNIHPSKVVNLGDEVEVLVLDIDEERRRISLGLKQCKTNPWDDFATRYNKGDKVSGKIKSITDFGIFIGLDGGIDGLVHLSDISWNGTGEDAVSEYKKGDEIHAVVLSVDPERERISLGVKQTEDDPFNAYLADKKKGTIVHGTVSAVDAKGVTVELADTVEGYIRVADISRERIEDASTVYSVGDAIEAKFMGVDRKNRSISLSIKAKDEAEEKEVMATLNKQEDAVISNAMAEAFKAARKLEHHHHHH, GPGSMWALTCRPIQNTEALQLMERYKAHNALQSNQWLLPRHLACFAVRPLYPAQLVLPTSSVIRLPLSAVPFSSLPLSRKREVFGLYPPPCTPPGSCSLLECSGAAMRWRPASLSECFDAAFVRSDSPSSHQHLLCATDCAGSVTVAEEVTVFNAQETNNPFLVDADLVHRNLLTKEAYEHSIGSSLTTIAAQFRYTSFEWVEATAAAAVGLRVRSSAAPHLVNCVDMLRVVHISQLPYTRQQELVAEIPRMTLIKSMTISYIFYHTRWRHHKSMELMRPLLHSNIPCCDTPQAQALQPLLWIAVDLDMEFRGPVMECARHSRTQFYNSQQLEVDTCAVPSRS
